Assay results taken from PMC6888414, “Two Homologous Enzymes of the GalU Family in Rhodococcus opacus 1CP—RoGalU1 and RoGalU2” (International Journal of Molecular Sciences, 2019).

B1: RoGalU2 (Rhodococcus opacus) (protein)
chain: MTDAAPHTASAFRTAVVPAAGMGTRFLPATKTVPKELLPVVDTPGIELVAGEAADSGAGRLVIVTSPGKDGVVAHFVEDLVLESKLEASGKYHLLEKVRKAPGLLEVESVIQDEPLGLGHAVGCAESVLDDDEDAIAVLLPDDLVMPRGVLETMSRVRRKRGGTVLCAIDVPKDQVSAYGVFEVETVPDATNPDVLKVIGMVEKPAIEDAPSTFAAAGRYLLDRAIFDALRRIEPGAGGELQLTDAIALLIKEGHPVHVVVHRGTRHDLGNPGGYLRAAVDFALDMEEYGPSLREWLIDRLKRTDS
notes: full length, N-terminal His10 tag (pET16bP), codon-optimized gene in E. coli BL21(DE3) pLysS, HisTrap purified; 34 kDa subunit, hexamer by SEC (188 kDa)

What was measured:
[1] = target: UDP-glucose pyrophosphorylase RoGalU2 of Rhodococcus opacus 1CP (Rhodococcus opacus 1CP); assay: SEC; Superdex 200 10/300 GL, non-denaturing, 50 mM Hepes pH 7.0, 1 mM magnesium chloride; RoGalU2 at 0.2 and 2.0 mg/mL, in duplicates; mass from a calibration with standard proteins
[2] = substrate: O=c1ccn([C@@H]2O[C@H](COP(=O)(O)OP(=O)(O)OP(=O)(O)O)[C@@H](O)[C@H]2O)c(=O)[nH]1; assay: HPLC of UDP-glucose formation, initial rates; assay type: biochemical, Rhodococcus opacus; details: 250 mM glucose 1-phosphate, 1 mM MgCl2, 50 mM Hepes pH 7.4, 42 °C, UTP 0.01–5 mM, Yano and Koga substrate inhibition fit
Description: (§1) HPLC of UDP-glucose formation, initial rates on RoGalU2

[3] = substrate: O=P(O)(O)O[C@H]1O[C@H](CO)[C@@H](O)[C@H](O)[C@H]1O; assay: HPLC of UDP-glucose formation, initial rates; assay type: biochemical, Rhodococcus opacus; details: 1.5 mM UTP, 1 mM MgCl2, 50 mM Hepes pH 7.4, 42 °C, glucose 1-phosphate 0.05–10 mM, Michaelis-Menten fit of the low range only, non-Michaelis behaviour above 10 mM
Description: as §1

Row | stoichiometry N [1] | Molecule | Km [2] [µM] | kcat [2] [s⁻¹] | kcat/Km [2] [M⁻¹ s⁻¹] | Km [3] [µM] | kcat [3] [s⁻¹] | kcat/Km [3] [M⁻¹ s⁻¹]
1 | 6 | UDP-glucose pyrophosphorylase RoGalU2 of Rhodococcus opacus 1CP (enzyme) | – | – | – | – | – | –
2 | – | B1 | 510 | 96.2 | 190000 | 900 | 3.7 | 4000
